pKd: −log10 of the molar value. Where only a bound is given, the exact number is not on record here.

Data set [1] addresses EHE chimera (EcSSB with hSSB1 IDL) (Escherichia coli / human (IDL)) (UniProt P0AGE0). Briefly: fluorescence polarization. As to conditions: 20 mM Tris-acetate pH 8, 50 mM K-glutamate, 10 mM Mg-acetate, 25 C, 10 nM labeled oligo, SSB concentrations as tetramers.
The target of data set [2] is EPE chimera (EcSSB with PfSSB IDL) (Escherichia coli / Plasmodium falciparum (IDL)) (UniProt P0AGE0). Briefly: fluorescence polarization. The following applies: 20 mM Tris-acetate pH 8, 50 mM K-glutamate, 10 mM Mg-acetate, 25 C; 10 nM labeled oligo, SSB concentrations as tetramers.
Data set [3] has as its target EcSSB R116D-W136D R116D;W136D (Escherichia coli) (UniProt P0AGE0). Briefly: fluorescence polarization. As to conditions: n = 2; 20 mM Tris-acetate pH 8, 50 mM K-glutamate, 10 mM Mg-acetate, 25 C; 10 nM labeled oligo, SSB concentrations as tetramers.
For data set [4], the target named is EcSSB d1G internal_change (Escherichia coli) (UniProt P0AGE0). Briefly: fluorescence polarization. The following applies: n = 1.9 to 2.3 range; here 2.3; 20 mM Tris-acetate pH 8, 50 mM K-glutamate, 10 mM Mg-acetate, 25 C; 10 nM labeled oligo, SSB concentrations as tetramers.
For data set [5], the target named is EcSSB d2G internal_change (Escherichia coli) (UniProt P0AGE0). The experiment in a line: fluorescence polarization. The following applies: n = 2.8; 20 mM Tris-acetate pH 8, 50 mM K-glutamate, 10 mM Mg-acetate, 25 C; 10 nM labeled oligo, SSB concentrations as tetramers.
The target of data set [6] is EcSSB WT (Escherichia coli) (UniProt P0AGE0). The experiment in a line: fluorescence polarization. As to conditions: n = 1.9 tetramer per oligo; 20 mM Tris-acetate pH 8, 50 mM K-glutamate, 10 mM Mg-acetate, 25 C; 10 nM labeled oligo, SSB concentrations as tetramers.
In data set [7] the target is EcSSB W136D W136D (Escherichia coli) (UniProt P0AGE0). Briefly: fluorescence polarization. As to conditions: n = 2; 20 mM Tris-acetate pH 8, 50 mM K-glutamate, 10 mM Mg-acetate, 25 C; 10 nM labeled oligo, SSB concentrations as tetramers.
Data set [8] deals with EcSSB dC (construct lacking the CTP, aa 1-170) (Escherichia coli) (UniProt P0AGE0). Briefly: fluorescence polarisation; competitive: dC (2.5 uM tetramer) complexed with 25 nM flCTP, titrated with EcSSB constructs (tetramer concentrations); 25°C; 20 mM Tris–acetate pH 8, 50 mM K-glutamate, 10 mM Mg-acetate; competitive binding scheme.
In a further data set the target is RecQ helicase (UniProt P15043). Briefly: fluorescence polarisation; competitive: RecQ–flCTP mixture (0.65 uM RecQ, 25 nM flCTP) titrated with EcSSB constructs (tetramer concentrations); 25°C; 20 mM Tris–acetate pH 8, 50 mM K-glutamate, 10 mM Mg-acetate; competitive binding scheme.
RecQ helicase, sequence (P15043 whole entry): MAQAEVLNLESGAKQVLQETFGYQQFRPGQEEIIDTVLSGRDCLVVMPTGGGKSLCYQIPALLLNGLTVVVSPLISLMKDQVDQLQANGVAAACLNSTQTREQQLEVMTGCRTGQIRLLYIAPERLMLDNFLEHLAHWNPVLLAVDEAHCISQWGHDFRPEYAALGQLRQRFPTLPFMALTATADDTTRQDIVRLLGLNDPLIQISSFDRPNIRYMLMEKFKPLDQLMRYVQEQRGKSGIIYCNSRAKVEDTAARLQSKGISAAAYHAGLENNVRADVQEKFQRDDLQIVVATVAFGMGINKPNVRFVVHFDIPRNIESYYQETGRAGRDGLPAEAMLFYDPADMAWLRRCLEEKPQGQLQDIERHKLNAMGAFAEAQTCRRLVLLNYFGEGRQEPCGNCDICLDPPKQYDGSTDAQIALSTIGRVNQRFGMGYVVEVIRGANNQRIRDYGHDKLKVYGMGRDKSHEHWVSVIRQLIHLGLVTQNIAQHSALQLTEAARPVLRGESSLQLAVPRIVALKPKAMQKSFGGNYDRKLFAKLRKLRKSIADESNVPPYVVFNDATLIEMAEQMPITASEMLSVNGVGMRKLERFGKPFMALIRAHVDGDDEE

Consider “TTTTTTTTTTTTTTTTTTTTTTTTTTTTTTTTTTTTTTTTTTTTTTTTTTTTTTTTTTTTTTTTTTTTTTTTTTTTTTT [dT79]”, for which the negative logarithm of the Kd (pKd) in data set [1] (n = 2.3) and in [2] was greater than 8.00 throughout.
In the case of ssDNA36, the pKd was 7.68 in data set [3]; 7.05 in data set [4]; 7.02 in data set [1] (n = 2.1); 7.34 in data set [5]; 7.49 in data set [6]; 7.08 in data set [2]. Moreover, in data set [7], the pKd was 7.80.
For the substance “EPE chimeric construct (EcSSB OB domain, IDL of Plasmodium falciparum SSB, EcSSB CTP) (from UniProt P0AGE0;Q8I415)”, the pKd in data set [8] is 7.24; with RecQ helicase, greater than 8.00.
“EcSSB GG construct (entire IDL except the CTP eliminated) (from UniProt P0AGE0 1-113) (natural protein)”: the negative logarithm of the Kd (pKd) in data set [8] is 7.01.

(Values after PMC12143593.)
